Patent publication US20160264649A1

Columns and labels:
Assay in all cases: cell-based or functional assay
[1] = target: HIV-1 92UG031 Env (HIV-1)
[2] = target: HIV-1 MGRM-A-004 Env (HIV-1)
[3] = target: HIV-1 MGRM-A-007 Env (HIV-1)
[4] = target: HIV-1 MGRM-A-008 Env (HIV-1)
[5] = target: HIV-1 MGRM-A-009 Env (HIV-1)
[6] = target: HIV-1 MGRM-A-012 Env (HIV-1)
[7] = target: HIV-1 92UG024 Env (HIV-1)
[8] = target: HIV-1 92UG046 Env (HIV-1)
[9] = target: HIV-1 93IN905 Env on pseudovirus (HIV-1)
[10] = target: HIV-1 93MW959 Env on pseudovirus (HIV-1)
[11] = target: HIV-1 93TH305 Env on pseudovirus (HIV-1)
[12] = target: HIV-1 98CN006 Env on pseudovirus (HIV-1)
[13] = target: HIV-1 98IN022 Env on pseudovirus (HIV-1)
[14] = target: HIV-1 APV_6 Env on pseudovirus (HIV-1)
HIV-1 CMU02 Env (HIV-1) = target: HIV-1 CMU02 Env (HIV-1)
[15] = target: HIV-1 IAVI-C18 Env (HIV-1)
HIV-1 JRCSF Env (HIV-1) = HIV-1 JRCSF Env (HIV-1) (UniProt P20871)
[16] = target: HIV-1 LAVIC_18 Env on pseudovirus (HIV-1)
[17] = target: HIV-1 MGRM-AE-003 Env (HIV-1)
[18] = target: HIV-1 MGRM-AE-007 Env (HIV-1)
[19] = target: HIV-1 MGRM-AE-008 Env (HIV-1)
[20] = target: HIV-1 MGRM-C-007 Env on pseudovirus (HIV-1)
[21] = target: HIV-1 MGRM-C-008 Env on pseudovirus (HIV-1)
[22] = target: HIV-1 MGRM-C-009 Env on pseudovirus (HIV-1)
[23] = target: HIV-1 MGRM-C-013 Env on pseudovirus (HIV-1)
[24] = target: HIV-1 MGRM-C-022 Env on pseudovirus (HIV-1)
[25] = target: HIV-1 MGRM-Chronic-B-003 Env on pseudovirus (HIV-1)
[26] = target: HIV-1 MGRM-Chronic-B-008 Env on pseudovirus (HIV-1)
[27] = target: HIV-1 MGRM-Chronic-B-012 Env on pseudovirus (HIV-1)
[28] = target: HIV-1 MGRM-D-004 Env (HIV-1)
[29] = target: HIV-1 MGRM-D-011 Env (HIV-1)
[30] = target: HIV-1 MGRM-D-012 Env (HIV-1)
[31] = target: HIV-1 MGRM-D-013 Env (HIV-1)
[32] = target: HIV-1 MGRM-D-016 Env (HIV-1)
[33] = target: HIV-1 MGRM-D-026 Env (HIV-1)
[34] = target: HIV-1 MGRM-D-028 Env (HIV-1)
[35] = target: HIV-1 MGRM-F1-004 Env (HIV-1)
[36] = target: HIV-1 MGRM-F1-008 Env (HIV-1)
[37] = target: HIV-1 MGRM-F1-016 Env (HIV-1)
[38] = target: HIV-1 MGRM-F1-022 Env (HIV-1)
[39] = target: HIV-1 MGRM-F1-023 Env (HIV-1)
[40] = target: HIV-1 MGRM-G-004 Env (HIV-1)
[41] = target: HIV-1 MGRM-G-006 Env (HIV-1)
[42] = target: HIV-1 MGRM-G-009 Env (HIV-1)
[43] = target: HIV-1 MGRM-G-013 Env (HIV-1)
[44] = target: HIV-1 MGRM-G-017 Env (HIV-1)
[45] = target: HIV-1 SC422661.8 (Acute) Env on pseudovirus (HIV-1)
[46] = target: HIV-1 SF162 Env on pseudovirus (HIV-1) (UniProt P19550)
[47] = target: HIV-1 THR0.18 (Acute) Env on pseudovirus (HIV-1)
[48] = target: HIV-1 TRO.11 (Acute) Env on pseudovirus (HIV-1)
[49] = target: HIV-1 VLGCB3 Env on pseudovirus (HIV-1)
[50] = target: aMLV envelope (negative control pseudovirus)

Substance: 4E10 (antibody)
- neutralization IC50 [1]: 4.94 µg/mL
- neutralization IC50 [2]: 3.14 µg/mL
- neutralization IC50 [3]: 1.82 µg/mL
- neutralization IC50 [4]: 7.59 µg/mL
- neutralization IC50 [5]: 12 µg/mL
- neutralization IC50 [6]: 4.27 µg/mL
- IC50 (µg/ml), pseudovirus neutralization [7]: 2.17 µg/mL
- neutralization IC50 [7]: 1.32 µg/mL
- neutralization IC90 [7]: 23.7 µg/mL
- IC50 (µg/ml), pseudovirus neutralization [8]: 12.2 µg/mL
- IC50 [9]: 1.26 µg/mL
- IC50 [10]: 4.55 µg/mL
- IC50 [11]: 12.3 µg/mL
- IC50 [12]: 1.91 µg/mL
- IC50 [13]: 0.53 µg/mL
- IC50 [14]: 1.1 µg/mL
- IC50 (µg/ml), pseudovirus neutralization (HIV-1 CMU02 Env (HIV-1)): 0.72 µg/mL
- neutralization IC50 (HIV-1 CMU02 Env (HIV-1)): 0.59 µg/mL
- neutralization IC90 (HIV-1 CMU02 Env (HIV-1)): 13.4 µg/mL
- neutralization IC50 [15]: > 50 µg/mL
- neutralization IC90 [15]: > 50 µg/mL
- neutralization IC50 (HIV-1 JRCSF Env (HIV-1)): 6 µg/mL
- neutralization IC90 (HIV-1 JRCSF Env (HIV-1)): 44.1 µg/mL
- IC50 [16]: > 50 µg/mL
- IC50 (µg/ml), pseudovirus neutralization [17]: 0.34 µg/mL
- IC50 (µg/ml), pseudovirus neutralization [18]: 0.45 µg/mL
- IC50 (µg/ml), pseudovirus neutralization [19]: 0.94 µg/mL
- IC50 [20]: 5.84 µg/mL
- IC50 [21]: 2.97 µg/mL
- IC50 [22]: 0.56 µg/mL
- IC50 [23]: 2.1 µg/mL
- IC50 [24]: 5.71 µg/mL
- IC50 [25]: 3.5 µg/mL
- IC50 [26]: 16.7 µg/mL
- IC50 [27]: 48 µg/mL
- IC50 (µg/ml), pseudovirus neutralization [28]: 1.58 µg/mL
- IC50 (µg/ml), pseudovirus neutralization [29]: 0.91 µg/mL
- IC50 (µg/ml), pseudovirus neutralization [30]: 1.13 µg/mL
- IC50 (µg/ml), pseudovirus neutralization [31]: 5.38 µg/mL
- IC50 (µg/ml), pseudovirus neutralization [32]: 15.4 µg/mL
- IC50 (µg/ml), pseudovirus neutralization [33]: 2.95 µg/mL
- IC50 (µg/ml), pseudovirus neutralization [34]: 1.28 µg/mL
- IC50 (pseudovirus neutralization) [35]: 2.74 µg/mL
- IC50 (pseudovirus neutralization) [36]: 2.75 µg/mL
- IC50 (pseudovirus neutralization) [37]: 7.61 µg/mL
- IC50 (pseudovirus neutralization) [38]: 1.01 µg/mL
- IC50 (pseudovirus neutralization) [39]: 0.44 µg/mL
- IC50 (µg/ml), pseudovirus neutralization [40]: 1.47 µg/mL
- IC50 (µg/ml), pseudovirus neutralization [41]: 1.23 µg/mL
- IC50 (µg/ml), pseudovirus neutralization [42]: 1.34 µg/mL
- IC50 (µg/ml), pseudovirus neutralization [43]: 1.15 µg/mL
- IC50 (µg/ml), pseudovirus neutralization [44]: 1.14 µg/mL
- IC50 [45]: 6.35 µg/mL
- IC50 [46]: 4.28 µg/mL
- IC50 [47]: 4.68 µg/mL
- IC50 [48]: 1.39 µg/mL
- IC50 [49]: 5.76 µg/mL
- IC50 (pseudovirus neutralization) [50]: > 50 µg/mL
